The text below walks through data of patent publication US20250066499A1 (SUNSHINE GUOJIAN PHARMACEUTICAL SHANGHAI, published 2025).

Experiment [1] deals with T1, CD73-ND-his (human, UniProt P21589 27-317).
T1 construct: Biotinylated and captured on streptavidin in the ELISA
T1 sequence: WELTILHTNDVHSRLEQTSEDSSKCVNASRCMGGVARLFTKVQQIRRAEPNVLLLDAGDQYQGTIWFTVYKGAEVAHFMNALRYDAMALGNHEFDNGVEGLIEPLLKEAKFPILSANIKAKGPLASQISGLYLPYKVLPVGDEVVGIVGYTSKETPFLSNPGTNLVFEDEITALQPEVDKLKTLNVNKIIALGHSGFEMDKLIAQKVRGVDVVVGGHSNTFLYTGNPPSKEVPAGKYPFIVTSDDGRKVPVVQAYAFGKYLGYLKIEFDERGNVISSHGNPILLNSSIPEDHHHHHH
Nature of the experiment: ELISA; decline multiple of Top against CD73-ND. Here is the method:
(§1) The ELISA plates were coated with SA protein diluted to 1.5 μg/mL in coating buffer (50 mM carbonate coating buffer, pH 9.6) and incubated overnight at 4° C. The supernatant was discarded, and the plates were washed three times with PBST. Then, 5% skimmed milk powder prepared with PBS was added for blocking and the plates were incubated for 2 h at 37° C. After washing the plates once with PBST, CD73-biotin protein (prepared by biotinylating CD73-His protein according to the EZ-Link NHS-Biotin Reagent instructions) was diluted to 0.5 μg/mL and added at 100 μL/well for incubation at room temperature for 1 h. The plates were washed three times with PBST, and the prepared murine-derived monoclonal antibodies against human CD73 were serially diluted with 1% BSA buffer prepared with PBST and added to the ELISA plates at 100 μl/well. The plates were incubated at 37° C. for 1 h. After washing the plates three times with PBST, HRP-labeled goat anti-mouse IgG secondary antibody was added and the plates were incubated for 30 min at 37° C. After washing the plates three times with PBST, the residual droplets were patted dry on absorbent paper as much as possible. Then, 100 μl of TMB color developing solution was added to each well, and the plates were incubated in the dark at room temperature for 5 min for color development. Subsequently, 50 μl of 2M H₂SO₄ stop solution was added to each well to terminate the substrate reaction. The OD values were read at 450 nm using a multimode microplate reader to analyze the binding ability of the tested antibodies to the target antigen human CD73-His.
(§2) Referring to the experimental method in Example 3, the affinity of 48A11-HuV33 for various mutant proteins of CD73-ND was determined. The SA protein was diluted to 1 μg/mL for coating the ELISA plates, and the biotinylated CD73 protein (CD73-biotin) was used at a concentration of 0.1 μg/mL.

A further experiment has as its target T2, CD73-ND-V186A (human, UniProt P21589 27-317).
T2 construct: Alanine mutant of CD73-ND
T2 sequence: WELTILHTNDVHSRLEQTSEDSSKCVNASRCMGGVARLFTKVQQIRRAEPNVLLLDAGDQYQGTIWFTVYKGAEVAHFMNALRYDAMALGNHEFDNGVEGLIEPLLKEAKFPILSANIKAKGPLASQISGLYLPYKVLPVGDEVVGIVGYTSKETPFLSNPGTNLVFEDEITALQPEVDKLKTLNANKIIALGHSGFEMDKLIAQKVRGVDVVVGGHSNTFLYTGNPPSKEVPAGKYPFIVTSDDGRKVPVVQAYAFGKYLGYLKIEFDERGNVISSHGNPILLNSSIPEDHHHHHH
Nature of the experiment: ELISA; decline multiple of Top against CD73-ND. As for the experimental part:
as §1, §2
A general note: An ELISA detects its analyte on a solid surface through an enzyme-linked reagent.

Experiment [2] concerns the target T1, CD73-ND-his. Nature of the experiment: ELISA; decline multiple of EC50 against CD73-ND. As for the experimental part:
as §1, §2

In another experiment the target is T3, CD73-ND-K180A (human, UniProt P21589 27-317).
T3 construct: Alanine mutant of CD73-ND
T3 sequence: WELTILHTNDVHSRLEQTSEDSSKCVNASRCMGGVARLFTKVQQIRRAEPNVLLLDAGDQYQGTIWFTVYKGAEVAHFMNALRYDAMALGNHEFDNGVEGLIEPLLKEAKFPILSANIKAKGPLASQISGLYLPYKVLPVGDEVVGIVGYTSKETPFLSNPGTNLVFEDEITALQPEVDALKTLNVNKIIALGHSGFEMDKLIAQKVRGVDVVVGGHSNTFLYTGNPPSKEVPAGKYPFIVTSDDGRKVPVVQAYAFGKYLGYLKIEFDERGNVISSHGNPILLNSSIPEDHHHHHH
Put plainly: ELISA; decline multiple of EC50 against CD73-ND. Here is the method:
as §1, §2

The next experiment has as its target T4, CD73-ND-T183A (human, UniProt P21589 27-317).
T4 construct: Alanine mutant of CD73-ND
T4 sequence: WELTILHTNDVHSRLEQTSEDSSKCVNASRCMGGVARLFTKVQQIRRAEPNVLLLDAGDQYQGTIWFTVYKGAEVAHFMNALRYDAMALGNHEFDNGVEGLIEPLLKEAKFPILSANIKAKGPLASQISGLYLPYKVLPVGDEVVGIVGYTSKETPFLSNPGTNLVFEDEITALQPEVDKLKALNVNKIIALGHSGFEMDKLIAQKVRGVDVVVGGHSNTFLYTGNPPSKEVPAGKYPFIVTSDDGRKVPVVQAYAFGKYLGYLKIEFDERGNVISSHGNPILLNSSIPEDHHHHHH
Nature of the experiment: ELISA; decline multiple of EC50 against CD73-ND. Here is the method:
as §1, §2

Another experiment concerns the target T5, CD73-ND-N185A (human, UniProt P21589 27-317).
T5 construct: Alanine mutant of CD73-ND
T5 sequence: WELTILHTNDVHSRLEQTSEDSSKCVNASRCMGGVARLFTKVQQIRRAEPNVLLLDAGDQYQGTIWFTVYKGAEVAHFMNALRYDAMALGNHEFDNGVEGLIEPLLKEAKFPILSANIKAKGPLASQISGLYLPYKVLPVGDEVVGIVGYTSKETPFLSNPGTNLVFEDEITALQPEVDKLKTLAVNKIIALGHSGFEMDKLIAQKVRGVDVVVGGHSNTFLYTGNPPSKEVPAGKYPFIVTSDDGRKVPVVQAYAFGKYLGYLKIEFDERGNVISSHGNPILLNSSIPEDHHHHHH
Nature of the experiment: ELISA; decline multiple of EC50 against CD73-ND. As for the experimental part:
as §1, §2

The target in another experiment is T6, CD73-CD-his (human, UniProt P21589 337-549).
T6 construct: it fits residue S549 of P21589 (27+522)
T6 sequence: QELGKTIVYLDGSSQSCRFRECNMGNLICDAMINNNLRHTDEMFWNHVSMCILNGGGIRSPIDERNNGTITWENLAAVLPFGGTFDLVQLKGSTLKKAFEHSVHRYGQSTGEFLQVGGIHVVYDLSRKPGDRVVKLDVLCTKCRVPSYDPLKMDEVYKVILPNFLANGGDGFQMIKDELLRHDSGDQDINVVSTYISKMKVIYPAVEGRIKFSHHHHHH
Put plainly: ELISA as in Example 3, antigen CD73-CD-his, antibody titrated, absorbance 450 nm.

B1: 48A11-HuV33 (antibody, human IgG4, V domains shown)
VH: QVQLVQSGAEVKKPGASVKVSCKASGYTFTSYWMHWVRQAPGQGLEWIGEINPSIGRTNYNEKFKSRVTLTRDTSTSTAYMELSSLRSEDTAVYYCARRVYGTMDYWGQGTLVTVSS
VL: DIQMTQSPSSLSASVGDRVTITCKASQDINSYLSWFQQKPGKSPKLLIYRANIWVDGVPSRFSGSGSGQDYTFTISSLQPEDIATYYCLQYDELYTFGQGTKVEIK
notes: Humanized
With B1, the entries for the “Ratio(Top)” value with CD73-ND-his [1] and with CD73-ND-V186A were 1 fold and 1.2 fold, respectively. Moreover, the “Ratio(EC50)” value is 1 fold with CD73-ND-his [2], 2.7 fold with CD73-ND-K180A, 1.4 fold with CD73-ND-T183A and 1.6 fold with CD73-ND-N185A. Also, the binding result in the experiment with CD73-CD-his is “no binding (tested: 10 nM)”.
